Experimental data as given in PMC9482650, “Quantitative fragmentomics allow affinity mapping of interactomes” (Nature Communications, 2022).

T1: APBA3_1, O96018
T1 sequence (O96018 389-490, limits assumed, looked up): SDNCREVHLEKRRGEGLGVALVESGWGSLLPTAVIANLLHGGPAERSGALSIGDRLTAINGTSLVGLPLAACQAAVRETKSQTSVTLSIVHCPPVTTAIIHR

T2: DFNB31_1, Q9P202
T2 sequence (Q9P202 135-233, limits assumed, looked up): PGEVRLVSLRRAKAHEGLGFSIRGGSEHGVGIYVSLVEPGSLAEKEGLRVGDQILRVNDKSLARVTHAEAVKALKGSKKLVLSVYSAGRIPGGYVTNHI

T3: DLG3_3, Q92796
T3 sequence (Q92796 374-475, limits assumed, looked up): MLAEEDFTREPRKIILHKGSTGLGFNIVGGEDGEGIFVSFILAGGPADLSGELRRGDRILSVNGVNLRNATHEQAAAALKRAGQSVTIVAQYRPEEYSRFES

T4: DVL3, Q92997
T4 sequence (Q92997 244-331, limits assumed, looked up): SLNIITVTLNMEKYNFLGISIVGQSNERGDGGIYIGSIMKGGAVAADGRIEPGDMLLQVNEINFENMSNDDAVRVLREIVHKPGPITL

T5: LRRC7, Q96NW7
T5 sequence (Q96NW7 1440-1537, limits assumed, looked up): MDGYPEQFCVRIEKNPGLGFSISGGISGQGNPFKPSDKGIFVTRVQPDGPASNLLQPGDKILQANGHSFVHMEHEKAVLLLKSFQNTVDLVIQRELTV

T6: MPDZ_10, O75970
T6 sequence (O75970 1624-1722, limits assumed, looked up): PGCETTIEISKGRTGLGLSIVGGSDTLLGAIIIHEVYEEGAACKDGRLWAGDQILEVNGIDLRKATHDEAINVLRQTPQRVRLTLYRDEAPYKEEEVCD

T7: MPDZ_5, O75970
T7 sequence (O75970 695-796, limits assumed, looked up): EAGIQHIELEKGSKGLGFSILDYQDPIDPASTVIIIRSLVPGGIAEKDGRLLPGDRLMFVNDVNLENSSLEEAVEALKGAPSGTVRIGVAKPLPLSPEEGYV

T8: MPP7, Q5T2T1
T8 sequence (Q5T2T1 134-230, limits assumed, looked up): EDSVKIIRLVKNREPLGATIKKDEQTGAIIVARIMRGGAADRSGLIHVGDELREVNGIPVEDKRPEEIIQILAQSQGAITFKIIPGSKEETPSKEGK

T9: PDZRN3_1, Q9UPQ7
T9 sequence (Q9UPQ7 244-349, limits assumed, looked up): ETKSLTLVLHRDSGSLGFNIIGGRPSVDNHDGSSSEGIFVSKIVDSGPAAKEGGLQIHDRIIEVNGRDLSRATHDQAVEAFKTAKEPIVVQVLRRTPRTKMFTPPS

T10: RHPN1, Q8TCX5
T10 sequence (Q8TCX5 508-602, limits assumed, looked up): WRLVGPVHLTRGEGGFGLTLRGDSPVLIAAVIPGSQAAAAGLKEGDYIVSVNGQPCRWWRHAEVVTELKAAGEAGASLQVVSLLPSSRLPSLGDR

T11: SNTB1, Q13884
T11 sequence (Q13884 107-205, limits assumed, looked up): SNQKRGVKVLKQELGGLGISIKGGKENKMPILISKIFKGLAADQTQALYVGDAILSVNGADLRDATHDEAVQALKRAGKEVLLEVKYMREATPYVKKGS


What was measured:
Test in all cases: holdup assay
Set-up in all cases: key: below the threshold = too weak to quantify, mostly under pKd 3.1 to 4
Conditions in all cases: plain residues with an end cap or a label only (N-terminal biotin on a linker: ado-ado)
[1] = target: T1, APBA3_1, O96018
[2] = target: T2, DFNB31_1, Q9P202
[3] = target: DLG2_2, Q15700
Chain of DLG2_2, Q15700 (Q15700 189-283): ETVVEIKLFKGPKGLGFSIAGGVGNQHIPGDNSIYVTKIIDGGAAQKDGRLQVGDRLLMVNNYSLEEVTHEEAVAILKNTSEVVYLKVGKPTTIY

[4] = target: T3, DLG3_3, Q92796
[5] = target: T4, DVL3, Q92997
[6] = target: FRMPD2_1, Q68DX3
Chain of FRMPD2_1, Q68DX3 (Q68DX3 770-861): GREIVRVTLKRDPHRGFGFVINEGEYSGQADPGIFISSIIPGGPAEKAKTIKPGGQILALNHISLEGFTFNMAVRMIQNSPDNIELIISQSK

[7] = target: GORASP1, Q9BQQ3
Chain of GORASP1, Q9BQQ3 (Q9BQQ3 1-208): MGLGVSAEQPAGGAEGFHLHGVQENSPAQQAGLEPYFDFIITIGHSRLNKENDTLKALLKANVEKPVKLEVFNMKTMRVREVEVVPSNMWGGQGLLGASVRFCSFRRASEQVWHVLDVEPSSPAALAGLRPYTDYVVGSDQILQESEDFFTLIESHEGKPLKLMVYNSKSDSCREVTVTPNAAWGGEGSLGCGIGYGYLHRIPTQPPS

[8] = target: GORASP2, Q9H8Y8
[9] = target: GRIP2_6, Q9C0E4
Chain of GRIP2_6, Q9C0E4 (Q9C0E4 648-740): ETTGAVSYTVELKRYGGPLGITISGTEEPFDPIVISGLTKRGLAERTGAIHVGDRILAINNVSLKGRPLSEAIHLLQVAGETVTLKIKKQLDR

[10] = target: IL16_1, Q14005
Chain of IL16_1, Q14005 (Q14005 210-306): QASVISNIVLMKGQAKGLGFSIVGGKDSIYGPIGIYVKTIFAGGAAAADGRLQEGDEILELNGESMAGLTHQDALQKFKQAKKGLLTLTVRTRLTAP

[11] = target: Inadl_1, Q8NI35
Chain of Inadl_1, Q8NI35 (Q8NI35 113-229): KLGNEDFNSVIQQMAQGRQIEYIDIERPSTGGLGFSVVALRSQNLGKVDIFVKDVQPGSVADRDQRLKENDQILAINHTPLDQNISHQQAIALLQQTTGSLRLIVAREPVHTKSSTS

[12] = target: Inadl_3, Q8NI35
Chain of Inadl_3, Q8NI35 (Q8NI35 359-469): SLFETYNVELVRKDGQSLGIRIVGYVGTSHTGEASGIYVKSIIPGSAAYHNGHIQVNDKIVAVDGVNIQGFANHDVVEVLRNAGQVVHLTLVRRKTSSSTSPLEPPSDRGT

[13] = target: Inadl_4, Q8NI35
Chain of Inadl_4, Q8NI35 (Q8NI35 547-651): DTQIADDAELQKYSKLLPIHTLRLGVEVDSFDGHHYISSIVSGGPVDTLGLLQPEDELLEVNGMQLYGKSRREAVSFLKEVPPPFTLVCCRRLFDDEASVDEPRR

[14] = target: T5, LRRC7, Q96NW7
[15] = target: T6, MPDZ_10, O75970
[16] = target: T7, MPDZ_5, O75970
[17] = target: T8, MPP7, Q5T2T1
[18] = target: NHERF4_1, Q86UT5-2
Chain of NHERF4_1, Q86UT5-2 (Q86UT5 other isoform, or with tags, fused parts or gaps): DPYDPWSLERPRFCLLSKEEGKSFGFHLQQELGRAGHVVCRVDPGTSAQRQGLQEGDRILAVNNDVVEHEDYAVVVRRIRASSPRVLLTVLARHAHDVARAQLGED

[19] = target: NHERF4_4, Q86UT5
Chain of NHERF4_4, Q86UT5 (Q86UT5 464-550): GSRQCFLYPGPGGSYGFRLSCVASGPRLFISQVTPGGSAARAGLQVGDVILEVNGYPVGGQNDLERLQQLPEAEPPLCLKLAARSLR

[20] = target: PDLIM1, O00151
Chain of PDLIM1, O00151 (O00151 1-87): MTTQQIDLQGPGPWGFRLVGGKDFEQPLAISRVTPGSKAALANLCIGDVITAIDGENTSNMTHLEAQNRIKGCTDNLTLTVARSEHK

[21] = target: T9, PDZRN3_1, Q9UPQ7
[22] = target: T10, RHPN1, Q8TCX5
[23] = target: SCRIB_1, Q14160
Chain of SCRIB_1, Q14160 (Q14160 718-814): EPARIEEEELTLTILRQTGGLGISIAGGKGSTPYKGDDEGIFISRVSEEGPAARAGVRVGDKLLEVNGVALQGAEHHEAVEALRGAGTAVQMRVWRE

[24] = target: SCRIB_3, Q14160
Chain of SCRIB_3, Q14160 (Q14160 999-1103): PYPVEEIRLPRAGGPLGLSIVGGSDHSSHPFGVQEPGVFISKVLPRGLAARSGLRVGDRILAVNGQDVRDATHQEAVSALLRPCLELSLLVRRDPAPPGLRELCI

[25] = target: T11, SNTB1, Q13884
[26] = target: TJP1_2, Q07157
Chain of TJP1_2, Q07157 (Q07157 181-274): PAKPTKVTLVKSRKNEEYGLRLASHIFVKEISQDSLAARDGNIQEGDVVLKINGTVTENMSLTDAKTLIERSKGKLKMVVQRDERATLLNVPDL

Row | Binder | pKd [1] | pKd [2] | pKd [3] | pKd [4] | pKd [5] | pKd [6] | pKd [7] | pKd [8] | pKd [9] | pKd [10] | pKd [11] | pKd [12] | pKd [13] | pKd [14] | pKd [15] | pKd [16] | pKd [17] | pKd [18] | pKd [19] | pKd [20] | other results
1 | CLREWCDAFL [BANF1, O75531] | below the threshold | below the threshold | below the threshold | below the threshold | 3.65 | below the threshold | 3.82 | below the threshold | below the threshold | below the threshold | below the threshold | 4.23 | below the threshold | 3.84 | below the threshold | below the threshold | below the threshold | 4.13 | 3.6 | below the threshold | pKd [21]: below the threshold; pKd [22]: below the threshold; pKd [23]: below the threshold; pKd [24]: 4.03; pKd [25]: below the threshold; pKd [26]: below the threshold
2 | IKAIVDLTGL [TRAF2, Q12933] | below the threshold | below the threshold | below the threshold | below the threshold | below the threshold | below the threshold | below the threshold | below the threshold | below the threshold | below the threshold | below the threshold | below the threshold | below the threshold | below the threshold | below the threshold | below the threshold | below the threshold | 3.76 | below the threshold | below the threshold | pKd [21]: below the threshold; pKd [22]: below the threshold; pKd [23]: below the threshold; pKd [24]: below the threshold; pKd [25]: below the threshold; pKd [26]: below the threshold
3 | GSGAVEMESV [AQP6, Q13520] | below the threshold | below the threshold | below the threshold | below the threshold | below the threshold | below the threshold | below the threshold | below the threshold | below the threshold | below the threshold | below the threshold | below the threshold | below the threshold | below the threshold | below the threshold | below the threshold | below the threshold | below the threshold | below the threshold | below the threshold | pKd [21]: below the threshold; pKd [22]: below the threshold; pKd [23]: below the threshold; pKd [24]: below the threshold; pKd [25]: below the threshold; pKd [26]: below the threshold
4 | SARSRLSSNL [HCN2, Q9UL51] | below the threshold | below the threshold | below the threshold | below the threshold | below the threshold | below the threshold | below the threshold | below the threshold | below the threshold | below the threshold | below the threshold | below the threshold | below the threshold | below the threshold | below the threshold | below the threshold | below the threshold | 3.96 | below the threshold | below the threshold | pKd [21]: 3.63; pKd [22]: 3.92; pKd [23]: 4.36; pKd [24]: 4.32; pKd [25]: below the threshold; pKd [26]: below the threshold
5 | PPYRHRNTVV [ERBB4, Q15303] | below the threshold | 3.57 | 4.95 | 4.16 | below the threshold | 3.71 | 4.19 | 4.26 | below the threshold | below the threshold | below the threshold | below the threshold | below the threshold | below the threshold | 3.95 | below the threshold | below the threshold | below the threshold | below the threshold | below the threshold | pKd [21]: 3.54; pKd [22]: 3.6; pKd [23]: 3.92; pKd [24]: 3.58; pKd [25]: 5; pKd [26]: below the threshold
